Among the data in the supplement of paper PMC10567573 are protein stability index values, retold here.

A short description of this data set: protein stability index of a GFP-peptide fusion (GPS, HEK-293T) (PSI 1-6); higher = more stable. The note with it: c terminus: a fixed tail appended.

± gives the standard deviation.
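Further: 24-mer peptide tiles fused after GFP, lentivirally expressed, FACS-sorted into six equal bins by GFP/DsRed ratio, decoded by Illumina sequencing, PSI is the read-weighted mean bin number.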

Consider TLRQKAEADKNDKAVKDLVVLLFE [HSP90AB1], for which the protein stability index reads like this: (treatment: DMSO) 3.07 ± 0.39; (treatment: MLN4924 1 uM, 8 h) 3.12 ± 0.27.
The sequence CQYLMATFVNVYIASFIRGPNPSK [CDS2] displayed a protein stability index (treatment: DMSO) of 3.67 ± 0.3 and a protein stability index (treatment: MLN4924 1 uM, 8 h) of 3.4 ± 0.45.
The matching figures for YNENVYTEDGKLDIWSKSNYQVFQ [MED27]: 2.5 ± 0.42 and 2.97 ± 0.4.
The matching figures for FLSFSMYQSFVQFLQYYYQSGCLY [TMEM120A]: 3.02 ± 0.39 and 3.54 ± 0.45.
The matching figures for DPSKRALSRDTVQESYENVDSLES [ZNF263]: 5.51 ± 0.065 and 5.56 ± 0.18.
Sequence EIFRRHFRQLCYQETPGPREALTR [ZSCAN9] yielded a protein stability index (treatment: DMSO) of 2.51 ± 0.17 and a protein stability index (treatment: MLN4924 1 uM, 8 h) of 2.76 ± 0.24.
PASQHSTPAGLPPSRAKPPTEGAG [FBF1] showed a protein stability index (treatment: DMSO) of 5.39 ± 0.3 and a protein stability index (treatment: MLN4924 1 uM, 8 h) of 5.293 ± 0.028.
In the same order, the values of TLTELRRTVQSLEIDLDSMRNLKA [KRT18] are 3 ± 0.5 and 3.06 ± 0.51.
The matching figures for SSSKRYTMSRSLDGASVNENHEIY [EPB41L3]: 4.11 ± 0.63 and 4 ± 0.45.
In the same order, the values of EFLWGPRAHAEIRKMSLLKFLAKV [MAGEA10] are 2.38 ± 0.3 and 2.66 ± 0.17.
For the sequence QTQVKIWFQNKRSKFKKLMKQGGA [DLX1], the protein stability index reads like this: (treatment: DMSO) 2.36 ± 0.32; (treatment: MLN4924 1 uM, 8 h) 2.1 ± 0.42.
In the case of QNRYLDGMVRAHGVRVSVPCPSTT [BET1L], the protein stability index (treatment: DMSO) came out at 3.02 ± 0.37 and the protein stability index (treatment: MLN4924 1 uM, 8 h) was 3.21 ± 0.44.
Turning to VRIQNPSLRENDFIEIELDRQELT [ANKRD40], the protein stability index is 3.04 ± 0.41 (treatment: DMSO) and 3.26 ± 0.44 (treatment: MLN4924 1 uM, 8 h).
As for AWMLCKLLDKAGVPPGVVNIVFGT [ALDH8A1], the protein stability index worked out at 2.642 ± 0.019 (treatment: DMSO) and 2.77 ± 0.51 (treatment: MLN4924 1 uM, 8 h).
RENSSDSPKELKRRNSSSSMSSRL [DLC1]: the protein stability index is, setting by setting: (treatment: DMSO) 5.13 ± 0.23; (treatment: MLN4924 1 uM, 8 h) 5.05 ± 0.3.
For PQKASPNGSISSAGNSSRNSSQSS [BTBD10], the protein stability index runs as follows: (treatment: DMSO) 5.04 ± 0.24; (treatment: MLN4924 1 uM, 8 h) 4.96 ± 0.13.
As to FIENNVSKLSLLLNDISRKSEGLS [TRIP13], the protein stability index is, setting by setting: (treatment: DMSO) 2.39 ± 0.35; (treatment: MLN4924 1 uM, 8 h) 2.33 ± 0.26.
AERLTATGILLHPWLRQDPMPLAP [TRIB3]: the protein stability index turned out to be 2.78 ± 0.22 (treatment: DMSO) and 2.91 ± 0.18 (treatment: MLN4924 1 uM, 8 h).
The matching figures for TFGAAACSIGFAVRYLNAYTGIVL [POP5]: 3.18 ± 0.57 and 3.45 ± 0.15.
Regarding IETIKIIETEDQIDKKPVSEKTDE [MIA2], the protein stability index runs as follows: (treatment: DMSO) 5.02 ± 0.39; (treatment: MLN4924 1 uM, 8 h) 4.7 ± 0.94.
As to EREVRAKNGRVDSEDRRSRHCPYL [USP39], the protein stability index by setting is: (treatment: DMSO) 4.39 ± 0.24; (treatment: MLN4924 1 uM, 8 h) 4.5 ± 0.32.
Consider SSADDASAWSNIQEAPLQDDSCLN [FAN1], for which the protein stability index reads like this: (treatment: DMSO) 5.26 ± 0.26; (treatment: MLN4924 1 uM, 8 h) 5.33 ± 0.27.
The matching figures for VNPTGNLPMWSNQTWNNSTWSNQT [NANOGP8]: 2.75 ± 0.2 and 2.98 ± 0.35.
In the same order, the values of CEPPSYRPMHHEDFKEDLKKFRTK [CDC25A] are 4.89 ± 0.31 and 4.93 ± 0.28.
For NFDSIYICPSTFACAQLATGAACR [HDAC6], the protein stability index was determined as 2.24 ± 0.21 (treatment: DMSO) and 2.16 ± 0.26 (treatment: MLN4924 1 uM, 8 h).
In the case of KMSNSFHGIRPPQLEQPEKMPVLK [RHOBTB3], the protein stability index is, setting by setting: (treatment: DMSO) 4.33 ± 0.16; (treatment: MLN4924 1 uM, 8 h) 4.34 ± 0.068.
In the same order, the values of MSTNTVGLGLPMSRSQNTDMVQKS [CLINT1] are 4.59 ± 0.13 and 4.7 ± 0.28.
In the same order, the values of QAEIENKRRQLEDERRQLQHLKSK [PALM] are 5.02 ± 0.17 and 4.97 ± 0.36.
In the same order, the values of SDLGFEVKCFNDLKAEELLLKIHE [CASP6] are 2.48 ± 0.28 and 2.69 ± 0.37.
In the case of FQAKKIPIVSSLADPLDTPPDSKE [PDZK1], the protein stability index came to 4.16 ± 0.3 (treatment: DMSO) and 4.39 ± 0.63 (treatment: MLN4924 1 uM, 8 h).
In the case of VCQALAQVDGGANFSVDRWERKEG [CPOX], the protein stability index was found to be 4.41 ± 0.14 (treatment: DMSO) and 4.1 ± 0.43 (treatment: MLN4924 1 uM, 8 h).
The matching figures for QRIKSQERETEATRGRGGLLRDHI [MOG]: 4.59 ± 0.18 and 4.78 ± 0.11.
In the same order, the values of SRRQEKSAGDADPENGEIKPASKP [ELOA2] are 5.53 ± 0.19 and 5.69 ± 0.1.
KSAHQTHSSWTPPNAQYWSQFHSV [DNAJC4]: the protein stability index (treatment: DMSO) turned out to be 2.74 ± 0.28 and the protein stability index (treatment: MLN4924 1 uM, 8 h) came out at 2.67 ± 0.18.
In the same order, the values of PQTHSNRIYRMIKLGLGIDEDEVA [HSP90AB1] are 3.25 ± 0.4 and 3.49 ± 0.31.
The matching figures for DLHKMNHVTPPNVSLGATGGPPAG [JUNB]: 4.38 ± 0.19 and 4.39 ± 0.078.
In the same order, the values of RPSSPRPQKASPNGSISSAGNSSR [BTBD10] are 4.97 ± 0.21 and 4.94 ± 0.3.
Consider RGGGDPWTNGSGLALCQRYYHRGH [MCOLN1], for which the protein stability index worked out at 3.08 ± 0.23 (treatment: DMSO) and 3.2 ± 0.28 (treatment: MLN4924 1 uM, 8 h).
In the same order, the values of WDQVSRLHEVLTEVVPIHGRGNFP [TENT5C] are 2.59 ± 0.28 and 2.67 ± 0.17.
The matching figures for VTIKHVACGDFFTACLTDRGIIMT [NEK8]: 2.96 ± 0.5 and 2.63 ± 0.35.
In the same order, the values of VEADINGLRRVLDELTLARTDLEM [KRT15] are 3.29 ± 0.27 and 3.33 ± 0.39.
Turning to KPYKCTLCGENFSHRSNLIRHQRI [ZNF263], the protein stability index was 2.74 ± 0.51 (treatment: DMSO) and 3.43 ± 0.39 (treatment: MLN4924 1 uM, 8 h).
In the case of GGMMPPGPGIPPLMPGMPPGMPPP [ZNF207], the protein stability index worked out at 3.89 ± 0.43 (treatment: DMSO) and 4.09 ± 0.15 (treatment: MLN4924 1 uM, 8 h).
NVGEISVSTRLTVLREDQIPRGFP [PTPRD]: the protein stability index runs as follows: (treatment: DMSO) 3.31 ± 0.54; (treatment: MLN4924 1 uM, 8 h) 3.44 ± 0.44.
In turn, GEQEHSQQKEEEEEMAVVPQGLFR [CHGA] displayed a protein stability index (treatment: DMSO) of 5.45 ± 0.43 and a protein stability index (treatment: MLN4924 1 uM, 8 h) of 5.55 ± 0.28.
In the same order, the values of KQPPWEFLQVLEPGARGLWKPPDI [SPAG8] are 2.45 ± 0.089 and 2.32 ± 0.23.
In the same order, the values of LHSGLVHGLAFWFDVAFIGSIMTV [CARM1] are 3.87 ± 0.46 and 3.56 ± 1.3.
The matching figures for PRAERKCPRIAPADSGRYRASPTR [ELOA2]: 4.47 ± 0.14 and 4.47 ± 0.26.
Consider TGLMVSLLCLLHFSIVSVAAHLAL [RTN2], for which the protein stability index (treatment: DMSO) stood at 3.27 ± 0.11 and the protein stability index (treatment: MLN4924 1 uM, 8 h) turned out to be 2.87 ± 0.27.
On to IIPTPDEEEKILRVKLEEDPDGEE [ZNF24], for which the protein stability index worked out at 5.44 ± 0.4 (treatment: DMSO) and 5.52 ± 0.57 (treatment: MLN4924 1 uM, 8 h).
In the same order, the values of TDQAIFYAVTPLPWCPHLVAVCPI [HDAC6] are 3.09 ± 0.61 and 3.22 ± 0.41.
On to MVVKTFMDMDQDSEEEKELYLNLA [PDS5B], for which the protein stability index is 2.79 ± 0.22 (treatment: DMSO) and 3 ± 0.23 (treatment: MLN4924 1 uM, 8 h).
Turning to RRITYLQNPKDCSKAKKLVCNINK [FUT8], the protein stability index runs as follows: (treatment: DMSO) 2.77 ± 0.28; (treatment: MLN4924 1 uM, 8 h) 3.05 ± 0.26.
